Assays:
Rabbit ANG2 = molecular target: T1, Rabbit ANG2 (rabbit, UniProt G1T9B3 19-496); test: SPR, Biacore T200, mean of three experiments
T1 sequence: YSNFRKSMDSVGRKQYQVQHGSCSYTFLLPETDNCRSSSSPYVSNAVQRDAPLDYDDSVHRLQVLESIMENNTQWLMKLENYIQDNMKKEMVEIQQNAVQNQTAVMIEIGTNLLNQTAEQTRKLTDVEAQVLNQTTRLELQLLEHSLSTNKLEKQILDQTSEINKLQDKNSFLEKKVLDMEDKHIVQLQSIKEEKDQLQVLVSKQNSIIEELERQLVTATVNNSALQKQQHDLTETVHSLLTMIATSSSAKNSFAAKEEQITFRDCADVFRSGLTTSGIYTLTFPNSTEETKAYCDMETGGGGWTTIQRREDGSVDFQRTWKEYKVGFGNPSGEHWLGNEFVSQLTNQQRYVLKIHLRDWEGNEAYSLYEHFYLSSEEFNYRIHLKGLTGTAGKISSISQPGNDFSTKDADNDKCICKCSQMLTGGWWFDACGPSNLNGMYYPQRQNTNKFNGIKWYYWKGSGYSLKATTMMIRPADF
Method: (§1) The antibody was diluted to 1 μg/mL and was captured onto channel 2 for 30 s, and channel 1 was the blank control channel. The gradient-diluted Human ANG2, Rhesus ANG2, Rabbit ANG2, Rat ANG2 and Mouse ANG2 were sequentially injected into channels 1 and 2 of the chip, from low to high concentrations (0-32 nM), at a flow rate of 30 μL/min, with one concentration per cycle, and with 180 s association time and 1200 s dissociation time at 25° C. Finally, the chip was regenerated using Glycine pH 1.5 at 30 μL/min for 30 s. The affinity assay was repeated three times.

human Ang2 [1] = molecular target: T2, human Ang2 (human, UniProt O15123 19-496, limits assumed); test: ForteBio BLI, antibody on AHQ sensor, 100 nM antigen, 1:1 model
T2 construct: also called hAng2; h Ang2
T2 sequence: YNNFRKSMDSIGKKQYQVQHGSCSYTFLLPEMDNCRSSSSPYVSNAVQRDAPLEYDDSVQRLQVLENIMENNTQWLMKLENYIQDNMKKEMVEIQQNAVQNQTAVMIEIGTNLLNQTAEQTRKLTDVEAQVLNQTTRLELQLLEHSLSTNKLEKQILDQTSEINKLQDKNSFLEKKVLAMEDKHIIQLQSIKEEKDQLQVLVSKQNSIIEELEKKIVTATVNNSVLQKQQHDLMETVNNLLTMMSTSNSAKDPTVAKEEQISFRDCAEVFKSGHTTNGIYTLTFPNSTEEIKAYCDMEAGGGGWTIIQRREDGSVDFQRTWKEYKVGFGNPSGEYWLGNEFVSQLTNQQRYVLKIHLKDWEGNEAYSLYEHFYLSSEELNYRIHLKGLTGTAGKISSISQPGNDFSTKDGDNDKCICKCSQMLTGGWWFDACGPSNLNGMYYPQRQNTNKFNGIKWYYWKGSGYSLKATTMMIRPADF
Method: The equilibrium dissociation constants (KD) of the above exemplary antibodies of the present invention binding to human Ang2 (h Ang2), cynomolgus monkey Ang2 (cAng2), murine Ang2 (mAng2), and human Ang1 (hAng1) were determined using the biological optical interferometry (ForteBio) assay.
The ForteBio affinity assay was performed according to the existing method (Estep, P et al., High throughput solution-based measurement of antibody-antigen affinity and epitope binning. MAbs, 2013.5 (2): p. 270-8). Briefly, the sensor was equilibrated in the assay buffer off-line for 30 min, followed by on-line detection for 60 s to establish the baseline. Then the purified antibodies obtained as described above were loaded on-line onto an AHQ sensor (ForteBio) for ForteBio affinity assay. The sensors with loaded antibodies were exposed to 100 nM of hAng2, cAng2, mAng2, and hAng1 antigens for 5 min, and then were transferred into the assay buffer for dissociation for 5 min to determine the dissociation rate. Kinetic analysis was performed using a 1:1 binding model.

Rhesus ANG2 = molecular target: T3, Rhesus ANG2 (rhesus, UniProt F6QXG0 19-496); test: SPR, Biacore T200, antibody captured on Protein G chip, experiment 2
T3 sequence: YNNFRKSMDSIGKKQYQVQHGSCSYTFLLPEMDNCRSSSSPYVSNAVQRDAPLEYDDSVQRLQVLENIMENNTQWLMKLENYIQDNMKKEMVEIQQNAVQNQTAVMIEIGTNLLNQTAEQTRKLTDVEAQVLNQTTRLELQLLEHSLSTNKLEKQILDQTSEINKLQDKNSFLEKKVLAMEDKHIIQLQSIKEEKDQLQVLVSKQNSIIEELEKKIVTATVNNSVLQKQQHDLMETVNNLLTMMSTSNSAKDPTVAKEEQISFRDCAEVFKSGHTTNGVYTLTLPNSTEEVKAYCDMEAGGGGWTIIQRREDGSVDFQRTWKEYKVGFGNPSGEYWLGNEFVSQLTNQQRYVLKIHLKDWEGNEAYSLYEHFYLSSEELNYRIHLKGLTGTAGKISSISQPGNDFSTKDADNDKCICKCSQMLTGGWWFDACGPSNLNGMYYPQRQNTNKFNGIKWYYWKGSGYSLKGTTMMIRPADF
Method: as §1

human Ang2 [2] = molecular target: T2, human Ang2; test: as above
Method: as §1

[3] = molecular target: T4, recombinant biotinylated hAngiopoietin-2 protein (R&D, Cat. No.: BT623B/CF) (human, UniProt O15123 19-496, limits assumed, biotinylated (sites not given)); test: ELISA: biotin Ang2 (R&D BT623B/CF) captured on coated streptavidin (SA), antibody titrated, anti-human IgG-HRP, OD450-OD620, GraphPad fit
T4 construct: Bought protein; also called Biotin Ang2; human biotin Ang2 protein
T4 sequence: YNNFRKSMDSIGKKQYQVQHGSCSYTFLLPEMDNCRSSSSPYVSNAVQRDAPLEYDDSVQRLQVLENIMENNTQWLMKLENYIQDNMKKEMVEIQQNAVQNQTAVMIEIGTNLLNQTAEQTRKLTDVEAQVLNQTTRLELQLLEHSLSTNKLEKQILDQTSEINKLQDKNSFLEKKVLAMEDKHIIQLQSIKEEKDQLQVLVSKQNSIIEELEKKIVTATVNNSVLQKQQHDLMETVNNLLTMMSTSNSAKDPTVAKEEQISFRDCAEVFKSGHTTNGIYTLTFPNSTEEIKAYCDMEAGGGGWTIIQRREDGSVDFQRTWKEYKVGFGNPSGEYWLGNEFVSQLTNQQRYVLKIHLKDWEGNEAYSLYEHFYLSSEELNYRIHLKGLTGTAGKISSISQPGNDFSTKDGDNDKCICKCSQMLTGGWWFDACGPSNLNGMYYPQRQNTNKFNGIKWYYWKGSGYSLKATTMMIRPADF
Method: The binding of 81H10 and hz81H10.4 of the present invention to human biotin Ang2 protein was measured in an SA-biotin Ang2-based ELISA assay.
SA protein (Thermo Fisher) was diluted to 1 μg/ml with PBS, and was coated onto a microtiter plate at 100 μl/well at 4° C. overnight. After three washes with PBST, the plate was blocked with 5% BSA for 1 h. Biotin Ang2 (R&D, Cat. No. BT623B/CF) was incubated at a concentration of 0.5 μg/ml for 1 h. Gradient diluted antibodies (maximum concentration 20 nM, 1:3 serial dilution) were added to the microtiter plate and incubated for 2 h, and the plate was washed three times with PBST. […] Then the plate was washed for 6 times with PBST. Chromogenic reaction was performed with 100 ul TMB and terminated with 100 ul 2N sulfuric acid. The reading of OD₄₅₀-OD₆₂₀ was taken by microplate reader. The concentration-dependent curve was fitted with GraphPad based on the OD₄₅₀-OD₆₂₀.

Kd (Rabbit ANG2): 0.48 nM
Kd (human Ang2 [1]): 1.25 nM
Kd (Rhesus ANG2): 0.126 nM
koff (Rhesus ANG2): 3.67e-05 s⁻¹
kon (Rhesus ANG2): 291000 M⁻¹ s⁻¹
Kd (human Ang2 [2]): 0.0319 nM
koff (human Ang2 [2]): 8.25e-06 s⁻¹
kon (human Ang2 [2]): 259000 M⁻¹ s⁻¹
EC50 [3]: 0.0212 nM
B1: humanized antibody hz81H10.4 (antibody, human IgG1, kappa, V domains shown)
VH: EVQLVESGGGLVKPGGSLRLSCAASGFTFSNYWMNWVRQAPGKGLEWVAEIRLKSNNYATHYAESVKGRFTISRDVSKNTVYLQMNSLKTEDTAVYYCTDTAPFAYWGQGTLVTVSS
VL: DIQMTQSPSSLSASVGDRVTITCKASQDVGTDVAWYQQKPGKAPKLLIYWASTRHTGVPSRFSGSGSGTDFTLTISSLQPEDFATYYCQQYSSYPLTFGGGTKVEIKR
notes: also called IBI335

— patent US20240239881A1 (Innovent, published 2024)
